This assay deals with combined repetitive oligopeptide domain of C. difficile toxin A (AviTag-His6-CROP) (Clostridium difficile, UniProt P16154 2304-2710). Kind of assay: SPR. The note with it: both partners purified.

The term Kd denotes the concentration at which binding is half-saturated.

B1: anti-CROP gastrobody G9 (His6-Thrombin site-SpyTag003-gastrobody) (designed binder)
chain: DFVLDNEGNPLENGGTYYILSHPDLFGGIRAAPTGNERCPLTVVQSLYLFDKGIGTIISSPYRIRFIAEGHPLSLKFDSFAVIMLCVGIPTEWSVVEDLPEGPAVKIGENKDAMDGWFRLERVSDDEFNNYKLVFCPQQAEDDKCGDIGISIDHDDGTRRLVVSKNKPLVVQFQKLDKESL
As to B1, the Kd was found to be 4.1 µM.

B2: anti-CROP gastrobody G22 (His6-Thrombin site-SpyTag003-gastrobody) (designed binder)
chain: DFVLDNEGNPLENGGTYYILSLQNRFGGIRAAPTGNERCPLTVVQSHDFMDKGIGTIISSPYRIRFIAEGHPLSLKFDSFAVIMLCVGIPTEWSVVEDLPEGPAVKIGENKDAMDGWFRLERVSDDEFNNYKLVFCPQQAEDDKCGDIGISIDHDDGTRRLVVSKNKPLVVQFQKLDKESL
For the molecule B2, the Kd was roughly 50 µM.

B3: anti-CROP gastrobody T42 (His6-Thrombin site-SpyTag003-gastrobody) (designed binder)
chain: DFVLDNEGNPLENGGTYYILSVPHQFGGIRAAPTGNERCPLTVVQSRNKWDKGIGTIISSPYRIRFIAEGHPLSLKFDSFAVIMLCVGIPTEWSVVEDLPEGPAVKIGENKDAMDGWFRLERVSDDEFNNYKLVFCPQQAEDDKCGDIGISIDHDDGTRRLVVSKNKPLVVQFQKLDKESL
As to B3, the equilibrium dissociation constant (Kd) stood at 6.2 µM.

The values are drawn from article PMC8358037 (Communications Biology, 2021).
